Reference: the nanobody polyreactivity screen of Harvey et al. (2022)

Experiment: yeast display, Sf9 membrane polyspecificity reagent, FACS + sequencing; frameworks hold sequencing errors
Summary of the method: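 Genes from sorted yeast were amplified by colony PCR, read by MiSeq 2 × 250 sequencing and filtered on CDR length. These cells carried a synthetic nanobody library in Saccharomyces cerevisiae BJ5465 and were sorted by FACS into low and high (top ~1%) gates on anti-HA and streptavidin fluorescence. Polyreactivity is labelled according to the gate of origin.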
For “QVQLVESGGRLVQAGGSLRLSCAASGSIFWYNSMGWYRQAPGKERELVAAISRRGGTTYADSVKGRFSISRDNAKYTVYLQLNSLKPEDTAVSYCGTTYTSRYYPYDYWGQGTQVTVSS”, the “polyreactivity (PSR sort gate)” value was “high polyreactivity”. In the case of “QVQLVESGGRLVQAGGSLRLSCAASGSIFYRYAMGWYRQAPGQERELVATINSDGGDTYYADSVKGRFTISRDNAKNTVSLQMNSLKPEDTAVYYSAKGYYVLYRAWYDSYDYWGQGTQVTVSS”, the “polyreactivity (PSR sort gate)” value is reported as “low polyreactivity”. In the case of “QVQLVESGGRLVQAGGSLRLSCAASGSIFYSYAMGWYRQAPGKERELVAAISRSGVSTYYADSVKGRFTISRDNAKNTVYFQMNSLKPEDTAVYYCASPYFVSYQGYDYWGQGTQVTVSS”, the “polyreactivity (PSR sort gate)” value is reported as “high polyreactivity”. With “QVQLVESGGRLVQAGGSLRLSCAASGSILTYYTMGWYRQAPGKERELVARISWSGSRTYYADSVKGRFTISRDNAKNTVYLQMNSLKPEDTAVYYCAAKANWYANYDYWGQGTQVTVSS” the “polyreactivity (PSR sort gate)” value was “high polyreactivity”. For “QVQLVESGGRLVQAGGSLRLSCAASGSTFNINAMGWYRQAPGKERELVAAISWSGDITYYADSVKGRFTISRDNAKNNVYLQMNSLKPEDTAVYYCNTDDPGNYWYAEYDYWGQGTQVTVSS”, the “polyreactivity (PSR sort gate)” value was “low polyreactivity”. With “QVQLVESGGRLVQAGGSLRLSCAASGSTFRYYAMGWYRQAPGKERELVAAITSSGTSTYYADSVKGRFTISRDNAKNTVYLQMNSLKPEDTAVYYCAAPPVYKWVSSRYDYWGQGTQVTVSS” the “polyreactivity (PSR sort gate)” value was “low polyreactivity”. In the case of “QVQLVESGGRLVQAGGSLRLSCAASGYNFSKYAMGWYRQAPGKERELVAAISGSGGSTSYADSVKGRFTISRDNAKNTVYLHMNSLKPEDTAVYYCNARSRLQRGRMDYWGQGTQVTVSS”, the “polyreactivity (PSR sort gate)” value is reported as “high polyreactivity”. In the case of “QVQLVESGGRLVQAGGSLRLSCAASGYTFGSYPMGWYRQAPGNERELVAAISGGGSTNYADSVKGRFTISRDNAKNTVYLQMNSMKPEDTAVYYCAAYPYVYQLRVEEYDHWGQGTQVTVSS”, the “polyreactivity (PSR sort gate)” value is reported as “low polyreactivity”. In the case of “QVQLVESGGRLVQAGGSLRLSCAASGYTIDPYDMGWYRQAPGKERELVASISWSGGDTYYADSVKGRFTISRDNAKNTVYLQMNSLKPEDTAVYYCAADPGYPANRTEWSDFDYWGQGTQVTVSS”, the “polyreactivity (PSR sort gate)” value is reported as “low polyreactivity”. In the case of “QVQLVESGGRLVQAGGSLRLSCAPSGFTFYRYAMGWYRQAPGKEREFVAAITWSGGSTYYADSVKGRFTISRDNSKNTVYLQMNSLKPEDTAVYYCAAYVGFDGTREYDYWGQGTQVTVSS”, the “polyreactivity (PSR sort gate)” value is reported as “high polyreactivity”. In the case of “QVQLVESGGRLVQAGGSLRLSCAPSGNTFALNAMGWYRQAPGKERELVAAISRRGASTYYADSVKRRFTISRDYAKNTVYIQMNSLKPEDNALDYCAADSGPRVGFFYWGQGTQVTVSS”, the “polyreactivity (PSR sort gate)” value is reported as “high polyreactivity”. With “QVQLVESGGRLVQAGGSLRLSCPASGSTFGVYAMGWYRPEPGKEREFVAAINYSGRTYYADSVKGLFTISRDNAKITVYLQMNSLKPEDTAVYYCNADFFYRYYGAYDYWGQGNQVTVSS” the “polyreactivity (PSR sort gate)” value was “high polyreactivity”. With “QVQLVESGGRLVQAGGSLRLSSAASGRIFKKNAMGRYRQAPGKERELVAAISYRGGSTYYADSVKGRFTISRDNAKNSVYLQMNSLKPVDTAVYYCNVGSRGCWDASDYDYWGQGTQVTVSS” the “polyreactivity (PSR sort gate)” value was “high polyreactivity”. With “QVQLVESGGRLVQAGGSLRLTCAASGITFGDYAMGWYRQAPGKERELVAGINWSGDGTYYADSVKGRFTISRDNAKNTVYLQMNSLKPEDTAVYYCAAETFYDYGGYDYWGQGTQVTVSS” the “polyreactivity (PSR sort gate)” value was “low polyreactivity”. For “QVQLVESGGRLVQAGGSLRLTCAATGRTFVRNPMGSYRQAPGKERELVATIRSGGSTNYADSVKGRFTISRDNAKNTVYLQMNSLKPEDTAVYYCATQGSRARYDYYYWGQGTQVTVSS”, the “polyreactivity (PSR sort gate)” value was “high polyreactivity”. In the case of “QVQLVESGGRLVQAGGSLSLSCAASGRTFHGYAMGWYRQAPGKERELVARINWSDGRTYYADSVKGRFTISRDNAKNTDYLQMNSLKPEDTAVYYCAADKTVSYAPAWYYYWGQGTQVSVSS”, the “polyreactivity (PSR sort gate)” value is reported as “low polyreactivity”. With “QVQLVESGGRLVQAGGSRRLSCAASGFTLRRNAMGWYRQAPGKERELVAAISSSGSTYYADSVKGRFTISRDNAKNTVYLQMNSLKPEDTAVYYCAALSKKVRTGQYNVGGDYWGQGTQVTVSS” the “polyreactivity (PSR sort gate)” value was “high polyreactivity”. In the case of “QVQLVESGGRLVQAGGTLRLSCAASGNIFFVYDMGWYRQPPGKESELVAAISWSGGSTYADSVKGRFTISRDNAKNTVYLQMNSLKPEDTAVYYCAADVAYVEYDYWGQGTQVTVSS”, the “polyreactivity (PSR sort gate)” value is reported as “low polyreactivity”. In the case of “QVQLVESGGRLVQARGSLSLSCAASGRTFLRYAMGWYRQAPGKERELVAAISQRGGSTYYADSVKGRFTISRDNAKNTVYLQMNRLKPEDTAVYYCAADFPSSQAVDSWGQGTQVTVSS”, the “polyreactivity (PSR sort gate)” value is reported as “high polyreactivity”. For “QVQLVESGGRLVQPGGSLRLSCAASGFIFFYYAMGWYSQAPGKESELVAAISSGGSTNYADSVKGRFTISRDNAKNTVYLQMNSLKPEDTAVYYCAKRPTGGYKYYYTTSKYDYWGQGTQVTVSS”, the “polyreactivity (PSR sort gate)” value was “low polyreactivity”. In the case of “QVQLVESGGSLLQAGCSLRLSCAASGFIIAWYAMGWSRQAPGKEWELVAAISLSGGSTRYADSVKGRFTISRDNAKNPVYLQMNCLKPEDTAVYYCNVDRWASTEYDYWGQGTQVTVSS”, the “polyreactivity (PSR sort gate)” value is reported as “low polyreactivity”. For “QVQLVESGGSLVKAGGSLRLSCAASGRIFGSNTIGWYRPEPGKERELVAAITSRGGSTYYADSVKGRFTISRDNAKNTVYLQMNSLKPEDTSVYYCAAKTVLFIFGYWGQGTQVSVSS”, the “polyreactivity (PSR sort gate)” value was “high polyreactivity”. In the case of “QVQLVESGGSLVQAGGSLRLICAASGFIFWTYAMGWYRQAPGKERELVARISWSGGSTYYADSVKGRFTNSRDNAKNTVYLQMNSLKPEDTAVYYCAALTESSSYGYWGQGTQVTVSS”, the “polyreactivity (PSR sort gate)” value is reported as “low polyreactivity”. With “QVQLVESGGSLVQAGGSLRLSCAASGRIFHNNAMGWYRQAPGKERELVAAISTGGSTNYADSVKGRFTISRDNAKNTVYLQMNSLTPEDTAVYYCAAEHPVTYPTSKFDYWGQGTQVTVSS” the “polyreactivity (PSR sort gate)” value was “low polyreactivity”. With “QVQLVESGGSLVQAGGSLRLSCASSGYIFRLYAMGWYRHAPGKEREYVATITASGGTYYADSVKGRFTISRDNAKNTVYLQMNSLKPEDTAVYYCAAAKLRRLSRVRYVYWGQGTQVTVSS” the “polyreactivity (PSR sort gate)” value was “high polyreactivity”. In the case of “QVQLVESGGVLVHAGGSLRLSCAASGITFEYYTMGWYRKAPGKERELVAAISSGGGSTYYADSVKGRFTISRDNAKNTVYLQMKSLKPEDTAVYYCAARGYRADQWEYDYWGQGTQVTVSS”, the “polyreactivity (PSR sort gate)” value is reported as “low polyreactivity”. For “QVQLVESGGVLVLVGGSLRLSCADSGMTFYWYTMGWYRQAPGKERELVAAITRRSARTYYADSVKGRFSISRDNAKNTVYLQMNILKPEDTAVYYCGAAGRPGGYVQRDSWGQGTQVTVSS”, the “polyreactivity (PSR sort gate)” value was “high polyreactivity”. In the case of “QVQLVESGGVLVQAGGRLRLSCAASGLTFYLYAMGWYRQAPGKQREFVAAISRSGTSTYYADSVKGRFTISRDYAKNTVNLQKNSLKPDDTAVYYCAALNYHKFAHKYDYWGQGTPVTVSS”, the “polyreactivity (PSR sort gate)” value is reported as “low polyreactivity”. With “QVQLVESGGVLVQAGGSLRFSCAASGIIFDQYAMGWYRQAPGKEREFVAVITRSGGSTYYADSVKGRFTISRDNAKKTVYLQMNSLKPEDTAVYYCAAPRLLGKRRRTNDYWGQGTQVTVSS” the “polyreactivity (PSR sort gate)” value was “high polyreactivity”. In the case of “QVQLVESGGVLVQAGGSLRLICAASGSIFGWNTKGWYRQSAGKERELVAGITRGGSTYYADSVKGRFTISRDNAKNTVYLQMNRQKPEDTAVYYCAALVYRAWEFEFWGQGTQVTVSS”, the “polyreactivity (PSR sort gate)” value is reported as “high polyreactivity”. For “QVQLVESGGVLVQAGGSLRLRCAASGRIFNRNAMGWYRQAPGKERELVAAITSCGSTNYADSVKGRFTISRDNAKNTVYLQMNSLKPEDTAVYYCNVYYHFFRLKTTYLRYYYWGQGTQVTVSS”, the “polyreactivity (PSR sort gate)” value was “high polyreactivity”.
